The text below walks through data of IntAct's records for PubMed 21685921.

B1: Regulator of G-protein signaling 16 (Homo sapiens), O15492 (parent)
chain: MCRTLAAFPTTCLERAKEFKTRLGIFLHKSELGCDTGSTGKFEWGSKHSKENRNFSEDVLGWRESFDLLLSSKNGVAAFHAFLKTEFSEENLEFWLACEEFKKIRSATKLASRAHQIFEEFICSEAPKEVNIDHETHELTRMNLQTATATCFDAAQGKTRTLMEKDSYPRFLKSPAYRDLAAQASAASATLSSCSLDEPSHT
B2: Regulator of G-protein signaling 17 (Homo sapiens), Q9UGC6 (parent)
chain: MRKRQQSQNEGTPAVSQAPGNQRPNNTCCFCWCCCCSCSCLTVRNEERGENAGRPTHTTKMESIQVLEECQNPTAEEVLSWSQNFDKMMKAPAGRNLFREFLRTEYSEENLLFWLACEDLKKEQNKKVIEEKARMIYEDYISILSPKEVSLDSRVREVINRNLLDPNPHMYEDAQLQIYTLMHRDSFPRFLNSQIYKSFVESTAGSSSES
B3: Regulator of G-protein signaling 4 (Homo sapiens), P49798 (parent)
chain: MCKGLAGLPASCLRSAKDMKHRLGFLLQKSDSCEHNSSHNKKDKVVICQRVSQEEVKKWAESLENLISHECGLAAFKAFLKSEYSEENIDFWISCEEYKKIKSPSKLSPKAKKIYNEFISVQATKEVNLDSCTREETSRNMLEPTITCFDEAQKKIFNLMEKDSYRRFLKSRFYLDLVNPSSCGAEKQKGAKSSADCASLVPQCA
B4: Regulator of G-protein signaling 18 (Homo sapiens), Q9NS28 (parent)
chain: METTLLFFSQINMCESKEKTFFKLIHGSGKEETSKEAKIRAKEKRNRLSLLVQKPEFHEDTRSSRSGHLAKETRVSPEEAVKWGESFDKLLSHRDGLEAFTRFLKTEFSEENIEFWIACEDFKKSKGPQQIHLKAKAIYEKFIQTDAPKEVNLDFHTKEVITNSITQPTLHSFDAAQSRVYQLMEQDSYTRFLKSDIYLDLMEGRPQRPTNLRRRSRSFTCNEFQDVQSDVAIWL

In one experiment the parent is B1. To be noted: with gnao_rat Gnao1, P59215.
Chain of gnao_rat Gnao1, P59215 (P59215 whole entry): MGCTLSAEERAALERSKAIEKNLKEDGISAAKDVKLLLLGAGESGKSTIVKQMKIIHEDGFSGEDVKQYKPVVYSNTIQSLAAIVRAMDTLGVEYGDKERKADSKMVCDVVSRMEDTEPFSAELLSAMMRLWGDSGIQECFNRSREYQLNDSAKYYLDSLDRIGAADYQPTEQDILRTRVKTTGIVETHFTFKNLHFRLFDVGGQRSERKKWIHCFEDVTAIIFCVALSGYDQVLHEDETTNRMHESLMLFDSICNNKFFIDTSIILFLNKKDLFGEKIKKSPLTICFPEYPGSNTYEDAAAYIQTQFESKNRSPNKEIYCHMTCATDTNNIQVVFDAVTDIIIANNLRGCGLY
Turning to MCRTLAAFPTTCLERAKEFKTRLGIFLHKSELGCDTGSTGKFEWGSKHSKENRNFSEDVLGWRESFDLLLSSKNGVAAFHAFLKTEFSEENLEFWLACEEFKKIRSATKLASRAHQIFEEFICSAAPKAVNIDHETHELTRMNLQTATATCFDAAQGKTRTLMEKDSYPRFLASPAYRDLAAQASAASATLSSCSLDEPSHT [E125A;E129A;K173A], the “effect of a mutation on the interaction” value was “decreasing interaction”. The same measure, in the same setting: the entry for MCRTLAAFPTTCLERAKEFKTRLGIFLHKSELGCDTGSTGKFEWGSKHSKENRNFSEDVLGWRESFDLLLSSKNGVAAFHAFLKTEFSEENLEFWLACEEFKKIRSATKLASRAHQIFEEFICSAAPKAVNIDHETHELTRMNLQTATATCFDAAQGKTRTLMEKDSYPRFLKSPAYRDLAAQASAASATLSSCSLDEPSHT [E125A;E129A] is “decreasing interaction”. Still for that read-out and setting: the entry for MCRTLAAFPTTCLERAKEFKTRLGIFLHKSELGCDTGSTGKFEWGSKHSKENRNFSEDVLGWRESFDLLLSSKNGVAAFHAFLKTEFSEENLEFWLACEEFKKIRSATKLASRAHQIFEEFICSEAPKAVNIDHETHELTRMNLQTATATCFDAAQGKTRTLMEKDSYPRFLKSPAYRDLAAQASAASATLSSCSLDEPSHT [E129A] is “decreasing interaction”. Same read-out and setting: the entry for MCRTLAAFPTTCLERAKEFKTRLGIFLHKSELGCDTGSTGKFEWGSKHSKENRNFSEDVLGWRESFDLLLSSKNGVAAFHAFLKTEFSEANLEFWLACEEFKKIRSATKLASRAHQIFEEFICSEAPKEVNIDHETHELTRMNLQTATATCFDAAQGKTRTLMEKDSYPRFLKSPAYRDLAAQASAASATLSSCSLDEPSHT [E90A] is “decreasing interaction”.

The next experiment covers variants of B2. As to conditions: with gnao_rat Gnao1, P59215.
As for MRKRQQSQNEGTPAVSQAPGNQRPNNTCCFCWCCCCSCSCLTVRNEERGENAGRPTHTTKMESIQVLEECQNPTAEEVLSWSQNFDKMMKAPAGRNLFREFLRTEYSEENLLFWLACEDLKKEQNKKVIEEKARMIYEDYISSEAPKEVNLDSRVREVINRNLLDPNPHMYEDAQLQIYTLMHRDSFPRFLKSQIYKSFVESTAGSSSES [I143S;L144E;S145A;S150N;N192K], the “effect of a mutation on the interaction” value is “increasing interaction”. The same measure, in the same setting: in the case of MRKRQQSQNEGTPAVSQAPGNQRPNNTCCFCWCCCCSCSCLTVRNEERGENAGRPTHTTKMESIQVLEECQNPTAEEVLSWSQNFDKMMKAPAGRNLFREFLRTEYSEENLLFWLACEDLKKEQNKKVIEEKARMIYEDYISSEAPKEVNLDSRVREVINRNLLDPNPHMYEDAQLQIYTLMEKDSFPRFLKSQIYKSFVESTAGSSSES [I143S;L144E;S145A;S150N;H183E;R184K;N192K] it was “increasing interaction”.

In the next experiment the parent is B3. As to conditions: with gnao_rat Gnao1, P59215.
As for R134A, the “effect of a mutation on the interaction” value is on record as “decreasing interaction”. Turning to E126A;R134A;R166A, the “effect of a mutation on the interaction” value is recorded as “disrupting interaction”. On the same count and under the same terms, the entry for N128S is “disrupting interaction”.

Turning to R134A;R166A, the “effect of a mutation on the interaction” value is “decreasing interaction”.

The variants in a further experiment derive from B4. As to conditions: with gnao_rat Gnao1, P59215.
As to METTLLFFSQINMCESKEKTFFKLIHGSGKEETSKEAKIRAKEKRNRLSLLVQKPEFHEDTRSSRSGHLAKETRVSPEEAVKWGESFDKLLSHRDGLEAFTRFLKTEFSEENIEFWIACEDFKKSKGPQQIHLKAKAIYEKFIQTDAPKEVNLDFHTKEVITNSITQPTLHSFDAAQSRVYQLMEKDSYTRFLKSDIYLDLMEGRPQRPTNLRRRSRSFTCNEFQDVQSDVAIWL [Q186K], the “effect of a mutation on the interaction” value was “increasing interaction”.

With METTLLFFSQINMCESKEKTFFKLIHGSGKEETSKEAKIRAKEKRNRLSLLVQKPEFHEDTRSSRSGHLAKETRVSPEEAVKWGESFDKLLSHRDGLEAFTRFLKTEFSEENIEFWIACEDFKKSKGPQQIHLKAKAIYEEFIQTDAPKEVNLDFETREVITNSITQPTLHSFDAAQSRVYQLMEQDSYTRFLKSDIYLDLMEGRPQRPTNLRRRSRSFTCNEFQDVQSDVAIWL [K141E;H156E;K158R], the “effect of a mutation on the interaction” value was “increasing interaction”. On the same count and under the same terms, the entry for METTLLFFSQINMCESKEKTFFKLIHGSGKEETSKEAKIRAKEKRNRLSLLVQKPEFHEDTRSSRSGHLAKETRVSPEEAVKWGESFDKLLSHRDGLEAFTRFLKTEFSEENIEFWIACEDFKKSKGPQQIHLKAKAIYEEFIQTDAPKEVNLDFETREVITNSITQPTLHSFDAAQSRVYQLMEKDSYTRFLKSDIYLDLMEGRPQRPTNLRRRSRSFTCNEFQDVQSDVAIWL [K141E;H156E;K158R;Q186K] is “increasing interaction”; for METTLLFFSQINMCESKEKTFFKLIHGSGKEETSKEAKIRAKEKRNRLSLLVQKPEFHEDTRSSRSGHLAKETRVSPEEAVKWGESFDKLLSHRDGLEAFTRFLKTEFSEENIEFWIACEDFKKSKGPQQIHLKAKAIYEKFIQTDAPKEVNLDFETREVITNSITQPTLHSFDAAQSRVYQLMEQDSYTRFLKSDIYLDLMEGRPQRPTNLRRRSRSFTCNEFQDVQSDVAIWL [H156E;K158R] it is “increasing interaction”.
